Laboratory results reported in patent US20250387492A1, “HSP90-TARGETING CONJUGATES AND FORMULATIONS THEREOF” (Fusion Pharmaceuticals Inc., priority 2018, published 2025).
Several values for one entry are separate records, joined by “and”; a condition that tells them apart may be missing. Equal entries are not always repeated. Where two headings read alike, the source gives them in different places.

Key:
[1] = H460 mouse tumor and plasma pharmacokinetics; type: in vivo; settings: mouse, 25 mg/kg IV, mean of 3 animals
Experimental: (§1) Conjugate accumulation at 24 and 48 h in tumor and plasma of NCI-H460 tumor-bearing mice (lung cancer). Conjugate 1 was dosed at 25 mg/kg intravenously.

[2] = tested on: NCI-H460 tumor-bearing mice; test: H460 mouse tumor and plasma pharmacokinetics; type: in vivo; settings: 25 mg/kg IV, individual animals
Experimental: as §1

[3] = Plasma profile in male SD rats; type: in vivo, rat; settings: 5 mg/kg IV; for Vd: male, SD, iv, 5 mg/kg
Experimental: Plasma profile for Conjugate 1 at 5 mg/kg dose (via IV) in male SD rats was obtained. Plasma profile for lutetium from Conjugate 1 was also measured.

[4] = Biodistribution in healthy rat tissues; type: in vivo; settings: 5 mg/kg, healthy rats; for level at time molar: rat
Experimental: Biodistributions of the conjugates were studied. Conjugate 1 was dosed at 5 mg/kg to healthy rats. The amount of Conjugate 1 and lutetium from Conjugate 1 in rat spleen, kidney, brain, liver and bone marrow was measured.

[5] = Biodistribution in H460 tumor model; settings: mouse, in vivo, 5 mg/kg, Tumor Levels, 24 h
Source text: (§2) In other studies, biodistribution of the conjugates was studied with H460 and H69 tumor models.

H460 tumor model mice = test: Biodistribution in H460 tumor model; settings: 5 mg/kg
Source text: as §2

[6] = Biodistribution in H69 tumor model; settings: mouse, in vivo, 5 mg/kg, Tumor Levels, 24 h, H69, 5 mg/kg; H69
Source text: as §2

H69 tumor model mice = test: Biodistribution in H69 tumor model; settings: 5 mg/kg; 24 h; H69
Source text: as §2

[7] = H460 mouse tumor and plasma pharmacokinetics; type: in vivo; settings: mouse, 25 mg/kg IV, mean of 3 animals; remark: listed apart in the source
[8] = tested on: NCI-H460 tumor-bearing mice; test: H460 mouse tumor and plasma pharmacokinetics; type: in vivo; settings: 25 mg/kg IV; 1 h; individual animals
[9] = Lu levels in tumor, kidney and liver of mice at 0.5 mg/kg
[10] = plasma, read-out: Compound 1 Conc. in NCI-H460 Mouse Plasma, Mean
[11] = tumor, read-out: Compound 1 Conc. in NCI-H460 Mouse Tumor, Mean
[12] = H460 and H69 tumor models, Conjugate 1 vs Conjugate 2

Molecule CCNC(=O)c1nnc(-c2cc(C(C)C)c(O)cc2O)n1-c1ccc(CN2CCN(C(=O)CN3CCN4CCN5CCN(CC3)CC(=O)[O][Lu]([O]C(=O)C5)[O]C(=O)C4)CC2)cc1 [Conjugate 1] has a level at time molar at 24 h [1, 10] of 29 nM, a level at time molar at 48 h [1, 10] of 16 nM and a level at time molar at 24 h [1, 11] of 4040 nM. The level at time molar at 48 h [1, 11] was 2710 nM, the “Compound 1 Conc. in NCI-H460 Mouse Plasma” value ([2]; 1 h) was 1.07 µM and 1.04 µM and 7.98 µM and the “Compound 1 Conc. in NCI-H460 Mouse Plasma” value ([2]; 24 h) was 0.020 μM (2×) and 0.046 μM. The “Compound 1 Conc. in NCI-H460 Mouse Tumor” value ([2]; 24 h) was 3.85 µM and 4.01 µM and 4.26 µM, the “Compound 1 Conc. in NCI-H460 Mouse Plasma” value ([2]; 48 h) was 0.016 µM and 0.013 µM and 0.020 µM and the “Compound 1 Conc. in NCI-H460 Mouse Tumor” value ([2]; 48 h) was 1.95 µM and 3.09 µM and 3.10 µM. The t1/2 ([3]; analyte Conjugate 1) was 1.45 H, the t1/2 ([3]; analyte Lu from Conjugate 1) was 0.56 H and the Vd ([3]; rat, analyte Conjugate 1, read-out: Vss_obs) was 0.483 L/kg. It also gave a Vd ([3]; rat, analyte Conjugate 1, read-out: Vz_obs) of 1.44 L/kg, an AUC(0-t) ([3]; rat, analyte Conjugate 1) of 7.31 µM·h and a Cmax ([3]; rat, analyte Conjugate 1) of 14200 nM. The AUC(0-inf) ([3]; rat, analyte Conjugate 1, read-out: AUC 0-inf_obs) was 7.34 µM·h, the clearance ([3]; rat, analyte Conjugate 1, read-out: Cl-obs) was 11.1 mL/min/kg and the “Conjugate 1 Conc., Bone marrow” value ([4]; individual animals A1-A3) was 0.063 µM and 0.664 µM and 0.838 µM. For the same molecule, the “Conjugate 1 Conc., Kidney” value ([4]; individual animals A1-A3) was 7.75 µM and 7.50 µM and 8.05 µM, the “Conjugate 1 Conc., Liver” value ([4]; individual animals A1-A3) was 1.50 µM and 2.46 µM and 3.33 µM and the “Conjugate 1 Conc., Spleen” value ([4]; individual animals A1-A3) was 0.148 µM and 0.134 µM and 0.232 µM. The “Lu from Conjugate 1 Conc., Bone marrow” value ([4]; individual animals A1-A3) was 0.030 µM and 0.021 µM and 0.022 µM, the “Lu from Conjugate 1 Conc., Brain” value ([4]; individual animals A1-A3) was “<BLQ” and the “Lu from Conjugate 1 Conc., Kidney” value ([4]; individual animals A1-A3) was 3.93 µM and 4.14 µM and 4.44 µM. For the same molecule, the “Lu from Conjugate 1 Conc., Liver” value ([4]; individual animals A1-A3) was 2.34 µM and 2.25 µM and 3.47 µM, the “Lu from Conjugate 1 Conc., Spleen” value ([4]; individual animals A1-A3) was 0.154 µM and 0.163 µM and 0.198 µM and the “Lu from Conjugate 1 Conc., Bone marrow, Mean” value ([4]; mean) was 0.024 µM. The “Lu from Conjugate 1 Conc., Brain, Mean” value ([4]; mean) was “<BLQ”, the “Lu from Conjugate 1 Conc., Kidney, Mean” value ([4]; mean) was 4.17 µM and the “Lu from Conjugate 1 Conc., Spleen, Mean” value ([4]; mean) was 0.172 µM. The level at time molar ([4]; bone marrow, mean, read-out: Conjugate 1 Conc., Bone marrow, Mean) was 522 nM, the level at time molar ([4]; brain, individual animals A1-A3, read-out: Conjugate 1 Conc., Brain) was 37 nM and the level at time molar ([4]; brain, mean, read-out: Conjugate 1 Conc., Brain, Mean) was 49 nM. For the same molecule, the level at time molar ([4]; kidney, mean, read-out: Conjugate 1 Conc., Kidney, Mean) was 7770 nM, the level at time molar ([4]; liver, mean, read-out: Conjugate 1 Conc., Liver, Mean) was 2430 nM and the level at time molar ([4]; spleen, mean, read-out: Conjugate 1 Conc., Spleen, Mean) was 171 nM. For the same molecule, the level at time molar at 24 h ([5]; H460 (1), H460 study (1)) was 1740 nM, the level at time molar at 24 h ([5]; H460 (2), H460 study (2)) was 2490 nM and the “Tumor:liver ratio, 24 h, H460 (1)” value (H460 tumor model mice; 24 h, H460 study (1)) was 0.16. For the same molecule, the “Tumor:kidney ratio, 24 h, H460 (2)” value (H460 tumor model mice; 24 h, H460 study (2)) was 1.8, the “Tumor:liver ratio, 24 h, H460 (2)” value (H460 tumor model mice; 24 h, H460 study (2)) was 1.2 and the “Clearance from plasma” value (H460 tumor model mice; H460 and H69 tumor models) was “clear rapidly from plasma”. The “Tumor retention (comparison)” value (H460 tumor model mice; [12]) was “similar”, the “Tumor uptake (comparison)” value (H460 tumor model mice; [12]) was “noticeably higher than Conjugate 2” and the “tumor:kidney ratio” value (H460 tumor model mice; H460 tumor model) was “around 2”. The “tumor:liver ratios” value (H460 tumor model mice; at 24 h, across H460 and H69 tumor models) was 0.1-1, the level at time molar at 24 h [6] was 1610 nM and the “Tumor:liver ratio, 24 h, H69” value (H69 tumor model mice) was 0.18. The level at time molar at 1 h [7, 10] was 3360 nM, the level at time molar at 1 h [7, 11] was 9130 nM and the “Compound 1 Conc. in NCI-H460 Mouse Tumor” value [8] was 9.30 µM and 7.05 µM and 11.1 µM. For the same molecule, the “Average Lu in Liver” value [9] was 23.85 % ID/g, the “Average Lu in kidney” value [9] was 1.00 % ID/g and the “Average Lu in tumor” value [9] was 1.28 % ID/g.
